Data from patent US20250388669A1 (published 2025).

Legend:
CD3 = CD3 (human); assay: CD3 binding, as described in Example 2 (ELISA or FCM)
PD-1 (binding assay) = PD-1 (binding assay) (UniProt Q15116 25-167, limits assumed); assay: FCM or ELISA, graded
B7H3 = molecular target: T1, B7H3 (human, UniProt Q5ZPR3 29-466, limits assumed); assay: FCM or ELISA
T1 construct: Tumor associated antigen; also called huB7H3
T1 sequence (looked up): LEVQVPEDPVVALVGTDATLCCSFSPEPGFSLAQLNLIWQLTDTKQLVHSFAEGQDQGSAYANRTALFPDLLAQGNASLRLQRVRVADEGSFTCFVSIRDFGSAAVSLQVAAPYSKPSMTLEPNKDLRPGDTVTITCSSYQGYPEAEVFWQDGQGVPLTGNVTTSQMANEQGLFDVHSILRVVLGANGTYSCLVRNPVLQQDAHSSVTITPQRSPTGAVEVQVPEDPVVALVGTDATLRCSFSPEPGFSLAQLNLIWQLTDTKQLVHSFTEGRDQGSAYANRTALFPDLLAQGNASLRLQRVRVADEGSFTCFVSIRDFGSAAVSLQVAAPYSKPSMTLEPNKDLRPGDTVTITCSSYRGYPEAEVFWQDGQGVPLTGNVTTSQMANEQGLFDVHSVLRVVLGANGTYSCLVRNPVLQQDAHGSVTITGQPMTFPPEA

Chain of CD3 (human) (chain, as listed by the source): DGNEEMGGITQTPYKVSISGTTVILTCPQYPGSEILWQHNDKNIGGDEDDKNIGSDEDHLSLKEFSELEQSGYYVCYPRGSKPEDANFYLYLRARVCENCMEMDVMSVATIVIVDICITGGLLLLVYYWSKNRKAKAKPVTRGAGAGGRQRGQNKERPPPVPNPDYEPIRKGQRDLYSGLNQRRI
Chain of PD-1 (binding assay) (Q15116 25-167 limits assumed): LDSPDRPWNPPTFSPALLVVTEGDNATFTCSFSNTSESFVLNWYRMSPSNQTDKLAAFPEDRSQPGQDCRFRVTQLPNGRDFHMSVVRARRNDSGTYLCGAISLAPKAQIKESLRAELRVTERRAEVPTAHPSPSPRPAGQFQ

B1: Ly305 (antibody, V domains shown)
VH: EVQLVESGGGLVQPGGSLRLSCAASGFTFSTYAMNWVRQAPGKGLEWVGRIRSKYNNYATYYADSVKGRFTISRDDSKNSLYLQMNSLKTEDTAVYYCVRHGNFGNSYVSWFAYWGQGTLVTVSS
VL: QAVVTQEPSLTVSPGGTVTLTCRSSTGAVTTSNYANWVQQKPGQAPRGLIGGTNKRAPWTPARFSGSLLGGKAALTITGAQAEDEADYYCALWYSNLWVFGGGTKLTVL
notes: Parent mAb; also called Anti-CD3 Ly305; parent anti-CD3 mAb
EC50 (CD3): 0.03 µg/mL

B2: Ly1965 (bispecific antibody)
chain 1: QVQLVQSGAEVKKPGASVKVSCKASGYTFTSYVMHWVRQKPGQGLEWIGYINPYNEGTESTDKFKGRATMTSDKSTSTVYMELSSLRSEDTAVYYCASIYYGYEGTYFGVWGQGTLVTVSSASTKGPSVFPLAPSSKSTSGGTAALGCLVKDYFPEPVTVSWNSGALTSGVHTFPAVLQSSGLYSLSSVVTVPSSSLGTQTYICNVNHKPSNTKVDKKVEPKSCGGGGSGGGGSGGGGSGGGGSEVQLVESGGGLVQPGGSLRLSCAASGFTFSTYAMNWVRQAPGKGLEWVGRIRSKYNNYATYYADSVKGRFTISRDDSKNSLYLQMNSLKTEDTAVYYCVRHGNFGNSYVSWFAYWGQGTLVTVSSGGGGSDKTHTCPPCPAPEAAGPSVFLFPPKPKDTLMISRTPEVTCVVVDVSHEDPEVKFNWYVDGVEVHNAKTKPREEQYNSTYRVVSVLTVLHQDWLNGKEYKCKVSNKALPAPIEKTISKAKGQPREPQVYTLPPSREEMTKNQVSLWCLVKGFYPSDIAVEWESNGQPENNYKTTPPVLDSDGSFFLYSKLTVDKSRWQQGNVFSCSVMHEALHNHYTQKSLSLSPG
chain 2: QVQLVQSGAEVKKPGASVKVSCKASGYTFTSYVMHWVRQKPGQGLEWIGYINPYNEGTESTDKFKGRATMTSDKSTSTVYMELSSLRSEDTAVYYCASIYYGYEGTYFGVWGQGTLVTVSSASTKGPSVFPLAPSSKSTSGGTAALGCLVKDYFPEPVTVSWNSGALTSGVHTFPAVLQSSGLYSLSSVVTVPSSSLGTQTYICNVNHKPSNTKVDKKVEPKSCGGGGSGGGGSGGGGSGGGGSQAVVTQEPSLTVSPGGTVTLTCRSSTGAVTTSNYANWVQQKPGQAPRGLIGGTNKRAPWTPARFSGSLLGGKAALTITGAQAEDEADYYCALWYSNLWVFGGGTKLTVLGGGGSDKTHTCPPCPAPEAAGPSVFLFPPKPKDTLMISRTPEVTCVVVDVSHEDPEVKFNWYVDGVEVHNAKTKPREEQYNSTYRVVSVLTVLHQDWLNGKEYKCKVSNKALPAPIEKTISKAKGQPREPQVYTLPPSREEMTKNQVSLSCAVKGFYPSDIAVEWESNGQPENNYKTTPPVLDSDGSFFLVSKLTVDKSRWQQGNVFSCSVMHEALHNRFTQKSLSLSPG
light: EIVLTQSPATLSLSPGERATLSCRASSSVSYMHWYQQKPGQAPRPWIYATSNLASGIPARFSGSRSGTDYTLTISSLEPEDFAVYYCQQWSSNTLTFGGGTKVEIKRTVAAPSVFIFPPSDEQLKSGTASVVCLLNNFYPREAKVQWKVDNALQSGNSQESVTEQDSKDSTYSLSSTLTLSKADYEKHKVYACEVTHQGLSSPVTKSFNRGEC
notes: B7H3 Fabs, central CD3 Fv
EC50 (CD3): 0.419 µg/mL

B3: Ly2278 (bispecific antibody)
chain 1: QVQLQQSGAELVRPGSSVKISCKASGYAFSSYWMNWVKQRPGQGLEWIGQIWPGDGDTNYNGKFKGKATLTADESSSTAYMQLSSLASEDSAVYFCARRETTTVGRYYYAMDYWGQGTTVTVSSASTKGPSVFPLAPSSKSTSGGTAALGCLVKDYFPEPVTVSWNSGALTSGVHTFPAVLQSSGLYSLSSVVTVPSSSLGTQTYICNVNHKPSNTKVDKKVEPKSCGGGGSGGGGSGGGGSGGGGSEVQLVESGGGLVQPGGSLRLSCAASGFTFSTYAMNWVRQAPGKGLEWVGRIRSKYNNYATYYADSVKGRFTISRDDSKNSLYLQMNSLKTEDTAVYYCVRHGNFGNSYVSWFAYWGQGTLVTVSSGGGGSDKTHTCPPCPAPEAAGPSVFLFPPKPKDTLMISRTPEVTCVVVDVSHEDPEVKFNWYVDGVEVHNAKTKPREEQYNSTYRVVSVLTVLHQDWLNGKEYKCKVSNKALPAPIEKTISKAKGQPREPQVYTLPPSREEMTKNQVSLWCLVKGFYPSDIAVEWESNGQPENNYKTTPPVLDSDGSFFLYSKLTVDKSRWQQGNVFSCSVMHEALHNHYTQKSLSLSPG
chain 2: QVQLQQSGAELVRPGSSVKISCKASGYAFSSYWMNWVKQRPGQGLEWIGQIWPGDGDTNYNGKFKGKATLTADESSSTAYMQLSSLASEDSAVYFCARRETTTVGRYYYAMDYWGQGTTVTVSSASTKGPSVFPLAPSSKSTSGGTAALGCLVKDYFPEPVTVSWNSGALTSGVHTFPAVLQSSGLYSLSSVVTVPSSSLGTQTYICNVNHKPSNTKVDKKVEPKSCGGGGSGGGGSGGGGSGGGGSQAVVTQEPSLTVSPGGTVTLTCRSSTGAVTTSNYANWVQQKPGQAPRGLIGGTNKRAPWTPARFSGSLLGGKAALTITGAQAEDEADYYCALWYSNLWVFGGGTKLTVLGGGGSDKTHTCPPCPAPEAAGPSVFLFPPKPKDTLMISRTPEVTCVVVDVSHEDPEVKFNWYVDGVEVHNAKTKPREEQYNSTYRVVSVLTVLHQDWLNGKEYKCKVSNKALPAPIEKTISKAKGQPREPQVYTLPPSREEMTKNQVSLSCAVKGFYPSDIAVEWESNGQPENNYKTTPPVLDSDGSFFLVSKLTVDKSRWQQGNVFSCSVMHEALHNRFTQKSLSLSPG
light: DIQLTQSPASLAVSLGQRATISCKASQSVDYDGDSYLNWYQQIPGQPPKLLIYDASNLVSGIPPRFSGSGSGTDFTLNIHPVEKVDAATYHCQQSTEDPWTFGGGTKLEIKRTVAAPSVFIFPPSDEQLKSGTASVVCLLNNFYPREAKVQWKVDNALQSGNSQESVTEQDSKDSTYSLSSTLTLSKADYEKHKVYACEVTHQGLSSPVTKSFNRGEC
notes: CD19 Fabs, central CD3 Fv
EC50 (CD3): 1.46 µg/mL

B4: Ly2281 (bispecific antibody)
heavy 1: QVTLKESGPALVKPTQTLTLTCTFSGFSLSTSGTCVSWIRQPPGKALEWLATICWEDSKGYNPSLKSRLTISKDTSKNQAVLTMTNMDPVDTATYYCARREDSGYFWFPYWGQGTLVTVSSASTKGPSVFPLAPSSKSTSGGTAALGCLVKDYFPEPVTVSWNSGALTSGVHTFPAVLQSSGLYSLSSVVTVPSSSLGTQTYICNVNHKPSNTKVDKKVEPKSCGGGGSGGGGSGGGGSGGGGSQVQLVQSGAEVKKPGASVKVSCKASGYTFAGFEMHWVRQAPGQGLEWMGAIDPKTGGTDYNQKFKDRVTMTRDTSISTAYMELSRLRSDDTAVYYCARDLGYFDVWGQGTLVTVSSGGGGSDKTHTCPPCPAPEAAGPSVFLFPPKPKDTLMISRTPEVTCVVVDVSHEDPEVKFNWYVDGVEVHNAKTKPREEQYNSTYRVVSVLTVLHQDWLNGKEYKCKVSNKALPAPIEKTISKAKGQPREPQVYTLPPSREEMTKNQVSLWCLVKGFYPSDIAVEWESNGQPENNYKTTPPVLDSDGSFFLYSKLTVDKSRWQQGNVFSCSVMHEALHNHYTQKSLSLSPG
heavy 2: QVTLKESGPALVKPTQTLTLTCTFSGFSLSTSGTCVSWIRQPPGKALEWLATICWEDSKGYNPSLKSRLTISKDTSKNQAVLTMTNMDPVDTATYYCARREDSGYFWFPYWGQGTLVTVSSASTKGPSVFPLAPSSKSTSGGTAALGCLVKDYFPEPVTVSWNSGALTSGVHTFPAVLQSSGLYSLSSVVTVPSSSLGTQTYICNVNHKPSNTKVDKKVEPKSCGGGGSGGGGSGGGGSGGGGSDIQMTQSPSSLSASVGDRVTITCRASQDIRSNLNWYQQKPGGAVKLLIYYTSRLHSGVPSRFSGSGSGTDYTLTISSLQPEDFATYFCQQSEKLPRTFGGGTKVEIRGGGGSDKTHTCPPCPAPEAAGPSVFLFPPKPKDTLMISRTPEVTCVVVDVSHEDPEVKFNWYVDGVEVHNAKTKPREEQYNSTYRVVSVLTVLHQDWLNGKEYKCKVSNKALPAPIEKTISKAKGQPREPQVYTLPPSREEMTKNQVSLSCAVKGFYPSDIAVEWESNGQPENNYKTTPPVLDSDGSFFLVSKLTVDKSRWQQGNVFSCSVMHEALHNRFTQKSLSLSPG
light: NIQMTQSPSSLSASVGDRVTITCKAGQNVNNYLAWYQQKPGKAPKVLIFNANSLQTGVPSRFSGSGSGTDFTLTISSLQPEDFATYYCQQYNSWPTFGGGTKVEIKRTVAAPSVFIFPPSDEQLKSGTASVVCLLNNFYPREAKVQWKVDNALQSGNSQESVTEQDSKDSTYSLSSTLTLSKADYEKHKVYACEVTHQGLSSPVTKSFNRGEC
notes: PD-1 Fabs (Ly516) x central CD137 Fv
binding result (PD-1 (binding assay)): binds

B5: Ly2434 (bispecific antibody, human IgG1, kappa)
chain 1: QVQLVQSGAEVKKPGASVKVSCKASGYTFTSYVMHWVRQKPGQGLEWIGYINPYNEGTESTDKFKGRATMTSDKSTSTVYMELSSLRSEDTAVYYCASIYYGYEGTYFGVWGQGTLVTVSSASTKGPSVFPLAPSSKSTSGGTAALGCLVKDYFPEPVTVSWNSGALTSGVHTFPAVLQSSGLYSLSSVVTVPSSSLGTQTYICNVNHKPSNTKVDKKVEPKSCDKTHTCPPCPAPEAAGPSVFLFPPKPKDTLMISRTPEVTCVVVDVSHEDPEVKFNWYVDGVEVHNAKTKPREEQYNSTYRVVSVLTVLHQDWLNGKEYKCKVSNKALPAPIEKTISKAKGQPREPQVYTLPPSREEMTKNQVSLWCLVKGFYPSDIAVEWESNGQPENNYKTTPPVLDSDGSFFLYSKLTVDKSRWQQGNVFSCSVMHEALHNHYTQKSLSLSPGGGGGSGGGGSGGGGSGGGGSEVQLVESGGGLVQPGGSLRLSCAASGFTFTNYGLHWVRQAPGKGLEWVSSISPSGGVTYYRDSVKGRFTISRDNSKNTLYLQMNSLRAEDTAVYYCAKPFLGWGGANWIAHWGQGTLVTVSS
chain 2: QVQLVQSGAEVKKPGASVKVSCKASGYTFTSYVMHWVRQKPGQGLEWIGYINPYNEGTESTDKFKGRATMTSDKSTSTVYMELSSLRSEDTAVYYCASIYYGYEGTYFGVWGQGTLVTVSSASTKGPSVFPLAPSSKSTSGGTAALGCLVKDYFPEPVTVSWNSGALTSGVHTFPAVLQSSGLYSLSSVVTVPSSSLGTQTYICNVNHKPSNTKVDKKVEPKSCDKTHTCPPCPAPEAAGPSVFLFPPKPKDTLMISRTPEVTCVVVDVSHEDPEVKFNWYVDGVEVHNAKTKPREEQYNSTYRVVSVLTVLHQDWLNGKEYKCKVSNKALPAPIEKTISKAKGQPREPQVYTLPPSREEMTKNQVSLSCAVKGFYPSDIAVEWESNGQPENNYKTTPPVLDSDGSFFLVSKLTVDKSRWQQGNVFSCSVMHEALHNRFTQKSLSLSPGGGGGSGGGGSGGGGSGGGGSDIQMTQSPSSLSASVGDRVTITCLASEDISNDLAWYQQKPGKAPKLLIYFVDRLLDGVPSRFSGSGSGTDFTLTISSLQPEDFATYYCQQSYKYPPTFGQGTKLEIK
light: EIVLTQSPATLSLSPGERATLSCRASSSVSYMHWYQQKPGQAPRPWIYATSNLASGIPARFSGSRSGTDYTLTISSLEPEDFAVYYCQQWSSNTLTFGGGTKVEIKRTVAAPSVFIFPPSDEQLKSGTASVVCLLNNFYPREAKVQWKVDNALQSGNSQESVTEQDSKDSTYSLSSTLTLSKADYEKHKVYACEVTHQGLSSPVTKSFNRGEC
notes: B7H3/CD40: two B7H3 Fabs, terminal CD40 Fv (TM559)
binding result (B7H3): binds
